Reference: patent publication US20260263563A1, “Method of Treatment of a Thoracolumbar Deformity in a Human Subject with Achondroplasia” (Ascendis Pharma Growth Disorders A/S, priority 2023, published 2026)
Like-named read-outs stand apart in the source and are kept apart here.

Assays:
[1] = Method: A population PK model was used to characterize the sparse PK data.
Blood samples for determination of CNP-38 were acidified immediately after collection, using citrate acid buffer, to stabilize the prodrug in the sample thereby avoiding further liberation of CNP-38 from the prodrug. CNP-38 was determined in plasma (heparin) following protein precipitation and solid phase extraction and analyzed using liquid chromatography and tandem mass spectrometry detection. CNP-38 (38 amino acid peptide) was used as reference material and CNP-38 labelled with deuterium (D30-CNP-38) as internal standard (IS). Positive ions were monitored in multiple-reaction monitoring mode. The quantification was performed using the peak area ratios of analyte versus IS. The calibration curve fitting was done by 1/concentration-weighted linear regression.
During the trial, sparse blood samples were collected at different time points in the dosing interval, and the concentration of free CNP-38 was determined using the methodology described in example 6.
The values are provided as pmol/L CNP-38. […] The lower value in the range is the lowest free CNP-38 concentration, also referred to as the trough level or trough concentration. The number of subjects contributing with observations at the specified time interval are: 4, 8, 10 and 6 for the 6, 20, 50 and 100 μg/kg dose groups, respectively.

[2] = test system: prepubertal children with achondroplasia; conditions: 50 and 100 μg/kg vs placebo, 52 weeks
Method: In the phase 2 study reported in Example 4, X-rays of the hand were taken at the placebo group (6 patients assessed), cohort 3, 50 μg/kg (9 patients assessed) and cohort 4, 100 μg/kg (7 patients assessed) and the Hand Metacarpal/Phalangeal Profile (MCPP) was assessed.

[3] = test system: prepubertal children with achondroplasia; conditions: for AGV: 100 μg CNP-38/kg/week group
Method: The study enrolled a minimum of 60 male and female prepubertal children with ACH aged 2 to 10 years old. The clinical trial is listed on www.clinicaltrials.gov under the ClinicalTrials.gov Identifier: NCT04085523. The objectives of the study were as follow:
This trial is a multicenter trial consisting of two treatment periods.
Height of subjects enrolled in the study of Example 3 was measured using a wall-mounted stadiometer. The same equipment was used at all visits for the same child. All instruments were calibrated as required by local requirements or per instrument manufacturer guidance prior to use.

[4] = test system: prepubertal children with achondroplasia
Method: SF-10™ Health Survey for Children is a 10-item parent-completed survey that covers a wide range of domains affecting a child's functional health and well-being (QualityMetric.com), with 5 items primarily related to physical health (PhS), and 5 items primarily related to psyhocosial health (PsS).
The survey was conducted at the following time points; baseline and week 52.
SF-10 assesses, inter alia, physical health (PhS). 5 items of the SF-10 were selected for the assessment of physical health parameters as follows: • Limited in things that take some energy • Limited in bending, lifting, stooping • Limited in kind of schoolwork/activities due to physical health • Subjects health in general • How much bodily pain or discomfort
For each response provided by a subject, a value is assigned and used to calculate the overall physical summary score in accordance with established guidelines (See The SF-10 Health Survey for Children User's Guide by QualityMetric). For reference, in accordance with the User's Guide, the SF-10 scale scores were centered so that a score of 50 corresponds to an average score in a 2006 sample (a combination of general population and supplemental disability and chronic condition samples).

Navepegritide [Compound (1)]
Estimated half-life for free CNP ([1]; 6 μg/kg/week): 101 h
Free CNP-38, Mean (SD) ([1]; 6 μg/kg/week, 6.5 to 7.5 days after last dose): 1.7 (0.2) pmol/L
Free CNP-38, Median (range) ([1]; 6 μg/kg/week, samples 6.5 to 7.5 days after last dose (trough), 4 subjects): 1.7 (1.4-1.9) pmol/L
Estimated half-life for free CNP ([1]; 20 μg/kg/week): 106 h
Free CNP-38, Mean (SD) ([1]; 20 μg/kg/week, 6.5 to 7.5 days after last dose): 2.9 (9.7) pmol/L
Free CNP-38, Median (range) ([1]; 20 μg/kg/week, 6.5 to 7.5 days after last dose, 8 subjects): 2.9 (1.6-4.2) pmol/L
Estimated half-life for free CNP ([1]; 50 μg/kg/week): 108 h
Free CNP-38, Mean (SD) ([1]; 50 μg/kg/week, 6.5 to 7.5 days after last dose): 7.2 (2.5) pmol/L
Free CNP-38, Median (range) ([1]; 50 μg/kg/week, 6.5 to 7.5 days after last dose, 10 subjects): 6.5 (4-16.9) pmol/L
Estimated half-life for free CNP ([1]; 100 μg/kg/week): 110 h
Free CNP-38, Mean (SD) ([1]; 100 μg/kg/week, 6.5 to 7.5 days after last dose): 14 (4.2) pmol/L
Free CNP-38, Median (range) ([1]; 100 μg/kg/week, 6.5 to 7.5 days after last dose, 6 subjects): 13.8 (9.4-23) pmol/L
Free CNP-38, Median (range) ([1]; 150 μg/kg/week, simulated with a population PK model): 22.3 (19.7-25) pmol/L
exposure across dosing cohorts ([1]; 6, 20, 50 and 100 μg/kg): dose related increase in exposure
Predicted median free CNP Cmax, Median (9-95th percentile) ([1]; BW 10 kg, 6 μg/kg/week): 2.9 (1.6-5.0) pg/ml
Predicted median free CNP Cmax, Median (9-95th percentile) ([1]; BW 10 kg, 20 μg/kg/week): 10.4 (5.8-18.9) pg/ml
Predicted median free CNP Cmax, Median (9-95th percentile) ([1]; BW 10 kg, 50 μg/kg/week): 26.5 (15.2-48.1) pg/ml
Predicted median free CNP Cmax, Median (9-95th percentile) ([1]; BW 10 kg, 100 μg/kg/week): 53.1 (30.9-96.4) pg/ml
Predicted median free CNP Cmax, Median (9-95th percentile) ([1]; BW 35 kg, 6 μg/kg/week): 1.8 (1.1-3.3) pg/ml
Predicted median free CNP Cmax, Median (9-95th percentile) ([1]; BW 35 kg, 20 μg/kg/week): 6.6 (3.8-12.6) pg/ml
Predicted median free CNP Cmax, Median (9-95th percentile) ([1]; BW 35 kg, 50 μg/kg/week): 18.3 (10.3-31.5) pg/ml
Predicted median free CNP Cmax, Median (9-95th percentile) ([1]; BW 35 kg, 100 μg/kg/week): 36.6 (20.2-65.9) pg/ml
Preliminary mean free CNP level ([1]; Cohort 1, 6 μg/kg, WEEK 0, 0.96 days post 1st dose): 1.86 pmol/L
Preliminary mean free CNP level ([1]; Cohort 1, 6 μg/kg, WEEK 4, 27.98 days, all observations below LLOQ, set to LLOQ ([…])): 1.38 pmol/L
Preliminary mean free CNP level ([1]; Cohort 1, 6 μg/kg, WEEK 8, 55.97 days): 1.68 pmol/L
Preliminary mean free CNP level ([1]; Cohort 1, 6 μg/kg, WEEK 12, 79.02 days): 1.85 pmol/L
Preliminary mean free CNP level ([1]; Cohort 1, 6 μg/kg, WEEK 26, 181.99 days): 1.48 pmol/L
Preliminary mean free CNP level ([1]; Cohort 1, 6 μg/kg, WEEK 39, 271.94 days): 2.02 pmol/L
Preliminary mean free CNP level ([1]; Cohort 1, 6 μg/kg, WEEK 52, 363.90 days): 1.58 pmol/L
Preliminary mean free CNP level ([1]; Cohort 2, 20 μg/kg, WEEK 0, 1.01 days): 3.49 pmol/L
Preliminary mean free CNP level ([1]; Cohort 2, 20 μg/kg, WEEK 4, 27.94 days): 3.27 pmol/L
Preliminary mean free CNP level ([1]; Cohort 2, 20 μg/kg, WEEK 8, 56.27 days): 3.79 pmol/L
Preliminary mean free CNP level ([1]; Cohort 2, 20 μg/kg, WEEK 12, 84.00 days): 3.84 pmol/L
Preliminary mean free CNP level ([1]; Cohort 2, 20 μg/kg, WEEK 26, 182.00 days): 2.77 pmol/L
Preliminary mean free CNP level ([1]; Cohort 2, 20 μg/kg, WEEK 39, 273.47 days): 5.19 pmol/L
Preliminary mean free CNP level ([1]; Cohort 3, 50 μg/kg, WEEK 0, 1.00 days): 10.58 pmol/L
Preliminary mean free CNP level ([1]; Cohort 3, 50 μg/kg, WEEK 4, 27.99 days): 7.29 pmol/L
Preliminary mean free CNP level ([1]; Cohort 3, 50 μg/kg, WEEK 8, 56.00 days): 9.24 pmol/L
Preliminary mean free CNP level ([1]; Cohort 3, 50 μg/kg, WEEK 12, 83.91 days): 7.62 pmol/L
Preliminary mean free CNP level ([1]; Cohort 4, 100 μg/kg, WEEK 0, 0.99 days): 15.29 pmol/L
half-life for free CNP ([1]; population PK model, weekly s.c. dosing): ~ 110 hours
exposure to free CNP ([1]; weekly s.c. dosing): Sustained exposure to free CNP was observed
hand length [2]: clear trend for dose dependent increase
AGV, LS Mean ([3]; 6 μg/kg/week, 52 weeks, n = 10, 95% CI [3.34, 4.84], p 0.6004 vs pooled placebo (4.35)): 4.09, n = 10 cm/year
Δ Height SDS (ACH-specific height SDS), LS Mean ([3]; 6 μg/kg/week, n = 10, 95% CI [−0.26, 0.17], p 0.8207 vs pooled placebo (−0.08)): −0.04, n = 10
AGV, LS Mean ([3]; 20 μg/kg/week, 52 weeks, n = 11, 95% CI [3.82, 5.22], p 0.7022 vs pooled placebo): 4.52, n = 11 cm/year
Δ Height SDS (ACH-specific height SDS), LS Mean ([3]; 20 μg/kg/week, n = 11, 95% CI [−0.17, 0.23], p 0.4107 vs pooled placebo): 0.03, n = 11
AGV, LS Mean ([3]; 50 μg/kg/week, 52 weeks, n = 10, 95% CI [4.43, 5.90], p 0.0849 vs pooled placebo): 5.16, n = 10 cm/year
Δ Height SDS (ACH-specific height SDS), LS Mean ([3]; 50 μg/kg/week, n = 10, 95% CI [−0.10, 0.32], p 0.1660 vs pooled placebo): 0.11, n = 10
AGV ([3]; 0 to 6 months): 5.167 cm/year
AGV ([3]; time period 6 to 12 months): 5.696 cm/year
AGV, LS Mean ([3]; 100 μg/kg/week, 52 weeks, n = 11, 95% CI [4.74, 6.11], p 0.0218 vs pooled placebo): 5.42, n = 11 cm/year
AGV, LS Mean ([3]; 100 μg/kg/week, 52 weeks, n = 11, 95% CI [4.74, 6.11], p 0.0218 vs pooled placebo, listed as compound (1)): 5.42 cm/year
Δ Height SDS (ACH-specific height SDS), LS Mean ([3]; 100 μg/kg/week, n = 11, 95% CI [0.02, 0.41], p 0.0283 vs pooled placebo): 0.22, n = 11
growth in Open Label Extension ([3]; 46 children switched from placebo or lower dose to 100 μg/kg/week, after one year): improved growth
AGV, LS Mean ([3]; Age < 5 years old, 6 μg/kg/week, n = 3, 95% CI [2.52, 6.10]): 4.31, n = 3 cm/year
AGV, LS Mean ([3]; Age < 5 years old, 20 μg/kg/week, n = 5, 95% CI [3.30, 6.15]): 4.72, n = 5 cm/year
AGV, LS Mean ([3]; Age < 5 years old, 50 μg/kg/week, n = 5, 95% CI [3.62, 6.52]): 5.07, n = 5 cm/year
AGV, LS Mean ([3]; Age < 5 years old, 100 μg/kg/week, n = 3, 95% CI [4.03, 7.87]): 5.95, n = 3 cm/year
AGV, LS Mean ([3]; Age ≥ 5 years old, 6 μg/kg/week, n = 7, 95% CI [2.87, 4.71]): 3.79, n = 7 cm/year
AGV, LS Mean ([3]; Age ≥ 5 years old, 20 μg/kg/week, n = 6, 95% CI [3.43, 5.15]): 4.29, n = 6 cm/year
AGV, LS Mean ([3]; Age ≥ 5 years old, 50 μg/kg/week, n = 5, 95% CI [4.39, 6.26]): 5.33, n = 5 cm/year
AGV, LS Mean ([3]; Age ≥ 5 years old, 100 μg/kg/week, n = 8, 95% CI [4.35, 5.90]): 5.12, n = 8 cm/year
SF-10 Physical Summary Score, Wk 52 (S.E) ([4]; 100 μg/kg (SC) weekly, week 52): 40.70 (6.87)
SF-10 Physical Summary Score, Change from Baseline ([4]; 100 μg/kg (SC) weekly, week 52, placebo −3.04 (3.82)): +5.91 (1.65)
SF-10 PsS score ([4]; 100 μg/kg weekly, after 52 weeks of treatment): improvement trend
SF-10 PhS score compared with baseline ([4]; 100 μg/kg weekly, week 52): marked increase
SF-10 Physical Summary, treated versus placebo ([4]; 100 μg/kg/week for one year (n=19) vs placebo (n=15), p=0.002, ages 5 years and older): statistically significant improved outcome
ACEM Emotional Well-being, treated versus placebo ([4]; 100 μg/kg/week for one year vs placebo, p=0.045): statistically significant improved outcome
ACEM Daily Living Function, treated versus placebo ([4]; 100 μg/kg/week for one year vs placebo, p=0.047): statistically significant improved outcome
